Common to all, as to details: both partners purified
Experiment [1] addresses T1, human TLR4 (ECD-His Tag, residues 1 to 631) (human, UniProt O00206 24-631).
T1 construct: signal peptide in the construct; Toll-like receptor 4, human, extracellular domain, residues 1 to 631; also called Toll-like receptor 4; recombinant TLR4; source: bought: Sino Biological Inc
Nature of the experiment: SPR; OpenSPR (Nicoya); human pCTS-L immobilised on NTA sensor chip; human TLR4 or RAGE applied as analyte at various concentrations; Kd estimated with TraceDrawer.

Experiment [2] deals with T2, extracellular domain of human RAGE (residues 1 to 344) (human, UniProt Q15109 23-344).
T2 construct: signal peptide in the construct; receptor for advanced glycation end products, human, extracellular domain, residues 1 to 344; also called receptor for advanced glycation end products; recombinant RAGE; source: bought: Sino Biological Inc
The description is as above.

Experiment [3] addresses T1, human TLR4 (ECD-His Tag, residues 1 to …). Kind of experiment: SPR; OpenSPR, series of Fig. 10A; pCTS-L immobilised on NTA sensor chip; TLR4 or RAGE as analyte; reference values without mAb20 (not told whether with c-mAb preincubated or with no antibody). A general note: Surface plasmon resonance follows binding to a sensor surface in real time, without labels.
Experiment [4] has as its target T2, extracellular domain of human RAGE …. Described as above.
Experiment [5] addresses T1, human TLR4 (ECD-His Tag, residues 1 to …). Kind of experiment: SPR; OpenSPR (Nicoya); TLR4 (residues 1 to 631) or RAGE extracellular domain (residues 1 to 344) immobilised on NTA sensor chip; pCTS-L applied as analyte at different concentrations; representative Kd.
Experiment [6] deals with T2, extracellular domain of human RAGE …. Described as above.

Results on one molecule are retold here after publication PMC9897667, “Identification of procathepsin L (pCTS-L)–neutralizing monoclonal antibodies to treat potentially lethal sepsis” (Science Advances, 2023).

T2 sequence (Q15109 23-344): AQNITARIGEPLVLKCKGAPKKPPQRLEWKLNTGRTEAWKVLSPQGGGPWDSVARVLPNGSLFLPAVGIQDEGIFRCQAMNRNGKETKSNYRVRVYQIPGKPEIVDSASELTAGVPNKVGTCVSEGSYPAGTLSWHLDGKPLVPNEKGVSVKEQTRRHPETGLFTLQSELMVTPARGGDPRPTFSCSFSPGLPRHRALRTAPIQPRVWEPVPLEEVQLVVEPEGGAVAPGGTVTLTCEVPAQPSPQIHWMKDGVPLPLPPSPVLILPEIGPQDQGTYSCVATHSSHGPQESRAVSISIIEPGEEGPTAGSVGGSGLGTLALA
T1 sequence (O00206 24-631): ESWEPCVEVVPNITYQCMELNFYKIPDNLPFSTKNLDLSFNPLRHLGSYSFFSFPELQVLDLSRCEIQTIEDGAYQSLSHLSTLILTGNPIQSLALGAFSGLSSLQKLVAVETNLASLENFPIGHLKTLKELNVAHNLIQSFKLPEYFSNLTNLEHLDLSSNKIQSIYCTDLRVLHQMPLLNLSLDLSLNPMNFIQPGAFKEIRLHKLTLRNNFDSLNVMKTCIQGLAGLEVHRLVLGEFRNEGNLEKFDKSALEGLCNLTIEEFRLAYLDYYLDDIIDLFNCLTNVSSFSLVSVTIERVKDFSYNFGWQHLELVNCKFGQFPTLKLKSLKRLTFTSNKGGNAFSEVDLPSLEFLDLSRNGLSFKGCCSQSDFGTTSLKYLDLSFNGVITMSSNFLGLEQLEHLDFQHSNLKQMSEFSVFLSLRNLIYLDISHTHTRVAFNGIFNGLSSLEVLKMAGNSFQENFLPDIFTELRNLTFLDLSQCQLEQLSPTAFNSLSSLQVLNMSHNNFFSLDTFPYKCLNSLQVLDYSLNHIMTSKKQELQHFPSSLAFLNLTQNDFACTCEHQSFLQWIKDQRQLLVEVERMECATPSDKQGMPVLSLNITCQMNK

B1: recombinant human procathepsin L (pCTS-L) (natural protein, UniProt P07711 18-333, looked up)
chain: TLTFDHSLEAQWTKWKAMHNRLYGMNEEGWRRAVWEKNMKMIELHNQEYREGKHSFTMAMNAFGDMTSEEFRQVMNGFQNRKPRKGKVFQEPLFYEAPRSVDWREKGYVTPVKNQGQCGSCWAFSATGALEGQMFRKTGRLISLSEQNLVDCSGPQGNEGCNGGLMDYAFQYVQDNGGLDSEESYPYEATEESCKYNPKYSVANDTGFVDIPKQEKALMKAVATVGPISVAIDAGHESFLFYKEGIYFEPDCSSEDMDHGVLVVGYGFESTESDNNKYWLVKNSWGEEWGMGGYVKMAKDRRNHCGIASAASYPTV
notes: procathepsin L (pCTS-L), human, recombinant; A HEK293-made pCTS-L is named only for stimulating PBMCs; also called proCTS-L; human pCTS-L; source: recombinant, highly purified
B1: the Kd (usually the concentration at which binding is half-saturated) in experiment [1] is 20.2 nM; in experiment [2], 3.5 nM; in experiment [3], 20.3 ± 2.3 nM; in experiment [4], 3.1 ± 0.4 nM; in experiment [5] it was 64.4 nM; in experiment [6], 3 nM.
